In article PMC3797752 (2013):

Target: wild-type SF162 gp120 (HIV-1 SF162)
Assay: SPR

B1: mAb VRC01 (antibody, V domains shown)
VH: QVQLVQSGGQMKKPGESMRISCRASGYEFIDCTLNWIRLAPGKRPEWMGWLKPRGGAVNYARPLQGRVTMTRDVYSDTAFLELRSLTVDDTAVYFCTRGKNCDYNWDFEHWGRGTPVIVSS
VL: EIVLTQSPGTLSLSPGETAIISCRTSQYGSLAWYQQRPGQAPRLVIYSGSTRAAGIPDRFSGSRWGPDYNLTISNLESGDFGVYYCQQYEFFGQGTKVQVD
Kd: 2.08 nM
